# Assay results published in IntAct's records for PubMed 22705791.
# B1: Double-strand break repair protein MRE11 (Saccharomyces cerevisiae), P32829 (parent)
# chain: MDYPDPDTIRILITTDNHVGYNENDPITGDDSWKTFHEVMMLAKNNNVDMVVQSGDLFHVNKPSKKSLYQVLKTLRLCCMGDKPCELELLSDPSQVFHYDEFTNVNYEDPNFNISIPVFGISGNHDDASGDSLLCPMDILHATGLINHFGKVIESDKIKVVPLLFQKGSTKLALYGLAAVRDERLFRTFKDGGVTFEVPTMREGEWFNLMCVHQNHTGHTNTAFLPEQFLPDFLDMVIWGHEHECIPNLVHNPIKNFDVLQPGSSVATSLCEAEAQPKYVFILDIKYGEAPKMTPIPLETIRTFKMKSISLQDVPHLRPHDKDATSKYLIEQVEEMIRDANEETKQKLADDGEGDMVAELPKPLIRLRVDYSAPSNTQSPIDYQVENPRRFSNRFVGRVANGNNVVQFYKKRSPVTRSKKSGINGTSISDRDVEKLFSESGGELEVQTLVNDLLNKMQLSLLPEVGLNEAVKKFVDKDEKTALKEFISHEISNEVGILSTNEEFLRTDDAEEMKALIKQVKRANSVRPTPPKENDETNFAFNGNGLDSFRSSNREVRTGSPDITQSHVDNESRITHISQAESSKPTSKPKRVRTATKKKIPAFSDSTVISDAENELGDNNDAQDDVDIDENDIIMVSTDEEDASYGLLNGRKTKTKTRPAASTKTASRRGKGRASRTPKTDILGSLLAKKRK
# partner: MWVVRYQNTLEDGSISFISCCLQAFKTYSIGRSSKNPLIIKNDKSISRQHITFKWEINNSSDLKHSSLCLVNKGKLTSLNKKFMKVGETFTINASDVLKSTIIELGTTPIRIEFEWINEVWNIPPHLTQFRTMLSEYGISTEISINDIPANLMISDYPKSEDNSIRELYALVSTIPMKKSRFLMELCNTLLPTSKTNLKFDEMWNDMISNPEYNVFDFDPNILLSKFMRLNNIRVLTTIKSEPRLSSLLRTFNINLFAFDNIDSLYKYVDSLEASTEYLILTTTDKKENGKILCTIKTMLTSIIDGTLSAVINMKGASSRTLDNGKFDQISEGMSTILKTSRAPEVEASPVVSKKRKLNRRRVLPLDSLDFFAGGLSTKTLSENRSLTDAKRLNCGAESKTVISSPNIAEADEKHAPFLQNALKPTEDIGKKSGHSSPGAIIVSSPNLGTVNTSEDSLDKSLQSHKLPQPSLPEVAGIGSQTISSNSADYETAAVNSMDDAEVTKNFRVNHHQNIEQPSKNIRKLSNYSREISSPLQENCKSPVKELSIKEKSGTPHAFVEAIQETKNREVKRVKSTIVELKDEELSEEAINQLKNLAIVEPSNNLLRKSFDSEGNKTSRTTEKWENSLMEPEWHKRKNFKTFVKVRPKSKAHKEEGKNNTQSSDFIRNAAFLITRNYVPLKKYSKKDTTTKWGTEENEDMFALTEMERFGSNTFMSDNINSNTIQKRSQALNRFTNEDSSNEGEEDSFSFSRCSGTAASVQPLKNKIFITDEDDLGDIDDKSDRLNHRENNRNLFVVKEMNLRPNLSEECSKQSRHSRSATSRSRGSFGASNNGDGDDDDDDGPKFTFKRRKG
# Variants of: B1
# Conditions: with xrs2_yeast XRS2, P33301
row,Variant,effect of a mutation on the interaction
1,R76K,disrupting interaction strength
2,R76A,disrupting interaction strength
3,D109G,disrupting interaction strength
4,N113S,disrupting interaction strength
